The nanobody polyreactivity screen of Harvey et al. (2022)

Assay: yeast display, Sf9 membrane polyspecificity reagent, FACS + sequencing; frameworks hold sequencing errors
Method in brief: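 Galactose induction of a Saccharomyces cerevisiae BJ5465 synthetic nanobody display library ran 36–48 hours. The cells were then stained for 1 hour at 4 °C with 10% biotinylated, detergent-solubilized Sf9 membrane reagent, pulled down on streptavidin microbeads and FACS-sorted into low and high (top ~1%) gates on expression and reagent-binding fluorescence. Labels for polyreactivity follow the gate of origin.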

Row | Sequence | polyreactivity (PSR sort gate)
1 | QVQLVESGGGLVQAGGSLRLSCAASGRILVPNAMGWYRQAPGKERELVATITSSGSTYADSVKGRFTISRDNAKNTVYLQMNSLKPEDTAVYYCAAKYTGSFINYGLWGTYFEDDYWGQGTQVTVSS | low polyreactivity
2 | FVQAGGSLRLTCAASGSTFYGNAMGWYRQATGKERELVAGITGDGGSTYYADSVKGRFTISRDNAKNTVYLQMNSLKPEDTAVYYCAVDVIVLGQWPRQLDEFDYWGQGTQVTVSS | low polyreactivity
3 | QVQLVESVGGVVQAGGSLRLCCAANRSTFAAKAMGWYRQAPGKERELGAAITSGGGTNYADSVKGRFTISRDNAKNTVYLQMNSLKPEDTAVYYCAARTWPWVLGATQDDYWGQGTQVTLSS | low polyreactivity
4 | QVQLVESGGGLVQAGGSLRLSCAASGRTVWDSAMGWYRQAPGNERELVAAIASNTGSTYYADSVKGRFTISRDNAKNTVYLQLNSLKPEDTAVYYCNVEYYYDFNFNYDDYEFDYWGQGTHVTVSS | high polyreactivity
5 | QVQLVESGGGIVQAGGSLPLSSAASGSTFPYNTMGWYIQAPGKERELVAAISQRGGSTYADSVKGRFTISRDNAKNTVYLEMNSLKPEDTAVYYCNKRNVYYSYPFDYDYWGQGTQVTVCS | low polyreactivity
6 | QVQLVETGGGLVQAGGSLRLSCAASGSIFFLYAMGWYRQAPGKERELVAAISRTGSTYADSVKGRLTISRDNAKNTVYLQMNSLKPEDTAVYYCDAEYRYYWYGTMNYWGQGTQVTVSS | low polyreactivity
7 | QVQLVESGGGLVQAGGSLRLSCAASGFTFYLYTMGWYRQAPGKERELVAAISWRGGGTYYADSVKGRFTISRDNAKNTVYLQMNSLKPEDTAVYYCATVRTYARNDYWGQGTQVTVSS | high polyreactivity
8 | QVQLVESGGGLVQAGGSLRLSCAASGSTFRKYAMGWYRQAPGKERELVAAISKSGGSTYYADSVKGRFTISRDNAKNTVYLQMNSLKPEDTAVYYCNARKRTKLSYPKFDYWGQGTQVTVSS | high polyreactivity
9 | QVQLVESGGGLVQAGGSLRLSCAASGRIFGSYALGWYRQAPGKERELVAAISSGGSTSYADSVKGRFTISRDNAKNTVYLQMNSLKPEDTAVDYCNRLRLFRGRGDYWGQGTQVTVSS | high polyreactivity
10 | QVQLVESGGGLVQAGGSLRLSCAASGFIFARYAMGWYRQAPGKEREFVAAITWSGGTTYYADSVKGRFTISRDYAKNTVYFQMNSLKPEDTAVYYCAARWGKTLWQYNYWGQGTQVTVSS | high polyreactivity
11 | QVQLEESGGGLVQAGGRLRLSCAASGSIWSYAMGWYRQAPGKERELVAAISSTGGSTYYADSVKGRFTISRDNAKNTVYLQMNSLKPEDTAVYYCAKGRRYDQSHYNYWGQGTQVNVSS | high polyreactivity
12 | QVQLVESGGGLVQAVGSLRLSCAASGSIFLLYDMGWYRPAPGKERELVAAITWSGGSTYYADSVKGRFTISRDNAKNTVYLQMNSLKPEDTAVYYCAADEPYPTAYEYWGQGTQVTVSS | low polyreactivity
13 | QVQLVESGGGLVQAGGSLRLSCAASGSTFLKNAMGWYRQAPGKERELVAAISYSTTRTYYADSVKGRFTISRDNAKNTVYLQMNSLKPEDTAVYSCNARWQEPLKYDYWGQGTQVTVSS | low polyreactivity
14 | QVQLVESGGGLVQAGGSLRLSCAATGRTSFRYTMGWYRQAPGKERELVAGISGSGGRTYYADSVKGRVTISRDNAKNTVYLQMNSLKPEDTAVYYCAAAWYTSHAKGKGGYWGQGTQVTVSS | high polyreactivity
15 | QVQLVESGGGLVQAGGSLRLSCAASGSTSTYYAMGWYRQAPWKERELVAANTLGAGRTYADSEKGRFTISRDNAKNTVSLQMNSLKPEDTAVYYCAADGYISVNYLRYDYWGQGTQVTVSS | low polyreactivity
16 | QVQLVESGGGLVQAGGSLRLSCAASGFTFYYYAMGWYRQAPGKESDLVAAISWSGGTTYYADSVKGRFTISRDNAKNTVYFQMNSLKPEDPAVYYCAADIRDPGVPMDYWGQGTQVTVSS | low polyreactivity
17 | QVQLVESGGGLVQARGSLRLSCAASGRTFGPYAMGWYRQAPGKERELVAAISSSEGSTYYADSVKGRFTISRDIAKYSVYLQMNSMKPEDTAVYYCNARYYLWSTTRWYGYDYWGQGTQVTVSS | high polyreactivity
18 | QGQLQESGGGLVKAGGSLRLSCPASGNISNHKDMGWYRQAPGKESEFVAGITAGGITNYADSVTGRFTICRDNAKNTVDLVMNSLKPEDTAVYYSAAYPDYAKSYGYWGQGTQATVSS | low polyreactivity
19 | QVQLVESGGGLVQAGGSLRLSCAASGRISTAYAMGWYRQAPGKERELVAAISSGTSTTYADSVKGRFTISRDNAKNTVYLQMNSLQPEDTAVYYCNADSWYGHYDSWGQGTQVTESS | low polyreactivity
20 | QVQLVESGGGLVQAGGSLRLSCAASGITYRPYAMGWYRQTPGKERELVASISRGGSTYYADSVKGRFTISRDNAKNTVYLQMNSLKPEDTAVYYCAAYFAWRYDYWGQGTQVTVSS | high polyreactivity
21 | QVQLVESGGGLVQAGGSLRLSCAASGLIFFSYAMGWYRQAPGKERELVAAISRRGGRTYYADSVKGRFTISRDNAKNTVYLQMNSLKPEDTAVYYCAADSGYVWYADDYWGQGTQVTVSS | low polyreactivity
22 | QVQLVESGGGLVQAGGSLRLSCAASGTFPGNAMGWYRQPPGKERELVATITRGGRTYYADSVKGRVTISRDNANNTVYLQMNSLKPEDTAVYYCNTSVYSGKIRGYDYGGQGTQVTVSS | high polyreactivity

Row | Sequence | polyreactivity (PSR sort gate)
23 | QVQLVESGGGLVQAGGSLRLSCAASGRTFRGYVMGWYRQAPGKERELVAAISKSGGSTYYADSVKGRFTISRDNAKNTVYLQMNSLKPEDTAVYYCAKNYRYYVFYDGFDYWGQGTQVTVSS | low polyreactivity
24 | QVQLVESGGGLVQAGGSLRLSCAASGITFYGYAMGWYRQAPGKERELVATISSGGGTNYADSVKGRFTISRDNAKNTVYLQMNSLKPEDTAVYYCATDLSTVDYNYWGQGTQVTVSS | low polyreactivity
25 | QVQLVESGGGLVQAGGSLRLSCAASGFIFHVYAMGWYRQAPGKEREFVAGISWRGGRTYYADSVKGRFTISRDNAKNTVYLLMNSLKPEDTAVYYCAALGLNAGGKFDYWGQGTQVTVSS | high polyreactivity
26 | QVQLVESGGGLVQAGGSLRLSFAASGLIFGYYTMGWYTQAPGKERELVAAITGIADSTYYADSVKGRFTISRDNAKNTVYLQMNSLKPEDTAVYYCAADKYVAEYDYWGQGTQVTVSS | low polyreactivity
27 | QVQLVESGGGLVQAGGSLRLSCAASGSTFAQNTMGWYRQAPGKERELVATISDGGGSTYYADSVKGRFTISRDIAKNTVYLQMNSLKPEDTAVYYCNTDRFWPSDYWGQGTQVTVSS | low polyreactivity
28 | QVQLVESGGGLVQAGGSLRLTCAASGSTFFPNDMGWYRQAPGKERELVDAISWRGGNTYADSVKGRFTISRDNAKNTVLLQMNSLKPEDTAVYYCAADVEWTSRGSYYRYYYWGQGTQVTVSS | low polyreactivity
29 | QVQLVESGGGLVQAGGSLRLSCAASGIIFHYYAMGWYRQAPGKERELVATISWDGGNTYYADSVKGRFTISRDNAKNSVYLKMNSLKPEDTAVYYCNVYDKAPAYDYWGQGTQVTVSS | low polyreactivity
30 | QVHLVESGGGLVQAGGSLRLSCAASGITIYVYAMGWYRQAPGKEREFVAAINGRGGSPYYADSVKGRFTISRDNAKNTVYLQMNSLKPEDTAVFYCAAESLAIYYKYPPYDYWGQGSQVTVSS | high polyreactivity
31 | QVQLVESGGGLVQAGGSLRLSCAASGITFVTYAMGWYRQAPGKERELVAAISRSGGRTYYADSVKGRFTISRDNAKNTVYLQMNSLKPEDTAVYYCAAERKNKYDYWGQGTQVTVSS | high polyreactivity
32 | QVQLVESGGGLVQAGGSLRLSCAASGSIFSSNTMGWYRQAPGKERELVAAITSGGGTYYADSVKGRFTISRDNAKNTVYLQMNSLKPEDTAVYYCAAQRDYKSSPSYDYWGQGTQVNVSS | low polyreactivity
33 | QVQLVESGGGLVQAGGSLRLSCAASGRIFKRNAMGWYRQAPGKERELVAAISWRGGSTYYADSVKGRFTISRDNAKNTVYLQMNSLKPEDTAVYYCNVGYGGSSDGGYDYWGQGTQVTVSS | high polyreactivity
34 | QVQLVESGGGLVQAGGSLRLSCAASGSIFAFYAKGWYRQAPGKERELVAYITSGGSTYYADSVKGRFTISRDNAKNNVYLQMNSLKPEDTAVYYFNSVYYSALVSGGETTIKRRYYWGQGTQVTVSS | high polyreactivity
35 | QVQLVESGGGLVQAGGSLRLSCPASGSTFGPYAMGWYRQAPGKERELVATISGSGSSTYYADSVKGRFTISRDNAKNTVDLQMNSLKPEDTAFYYCATDLYFDLRYDYWGQGTQVTVSS | low polyreactivity
36 | QVQLVESGGGLVQAGGRLRLSCAASGFTFYDNAMGWYRQAPGKERELVAGINSGDSTFYAVSVKGRITISRDNAKNTVYLQMTSLKPEDTGFYYGAADWAWLQWSYDYWGQGTQVTVSS | low polyreactivity
37 | QVQLVESGGGLVQAGGSLRLSCAASGLIFQFNAKGWYTQAPGKDREFVAAISGRADSTYYADSVKGRFTISRDNAKNTVYLQMNSLKPEDTAVYYCAALAYYHRYEYWGQGTQVTVSS | low polyreactivity
38 | QVQLVESGGGLVQAGGSLRLSCAASGSTFGSYAMGWYIQAPGKERELVAAINWSGGITYYADSVKGRFTISRDNAKNTVYLQMNSLKPEDTAVYYCAADTRTYYYGSTYDYEYWGQGTQVTVSS | low polyreactivity
39 | QVKLVESGGGLVQAGGSLRLSCAASGRTFASNAMGWYRQAPGKERELVADISSSGGTTYYADSVKGRFTISRDNAKNTVYLQMNSLKPEDTAVYYCAAVSSQDDPVKAWDYEYWGQGTQVTVSS | low polyreactivity
40 | QVQLVESGGGLVQSGGSLRLSCAASGRIFDYNAMGWYRQAPGKERELVAAINSGGSTYADSVKGRFTISRDNAKNTVYLQMNSLKPEDTAVYYCNATPQFATFTYDYCGQGTQVTVSS | low polyreactivity
41 | QVQLVESGGGLVQAGGSLRLSCAASGRIFSVNAMGWYRQAPGKERELVAAITPGASTNYADSVKGRFTISRDNAKNTVYLQMNSLKPEDTAVYYCAAGWVSFEDWVLGSYYEYDYWGQGTQVTVSS | low polyreactivity
42 | QVQLQEIGGGLVQAGGSLRQSYAASGYIFPSLAMGWYRQAQGKEREFVAAIGRGSTNNYADSVKGRFTISRDNAKNTAYQQMNSLKPEDTAVYYCAVVQRSKRTYPWYDYWGQGTQVTVSS | low polyreactivity
43 | QVQLVESGGGLVQAGGSLRLSCAASGRIFRFYAMGWYRQAPGKERELVADISRRGGSTYYADSVKGRFTISRDNAKNTVYLQMNSLKPEDTAVYYCNARWYRTGSTYHEDYWGQGTQVTVSS | high polyreactivity
